The labels stand for the following.
T1: Abp1 SH3 (ABP1_YEAST), P15891
T1 chain: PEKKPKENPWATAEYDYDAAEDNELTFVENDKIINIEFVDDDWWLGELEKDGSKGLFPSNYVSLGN

The assay has as its target T1, Abp1 SH3 (ABP1_YEAST), P15891. The experiment in a line: SPOT array.
Regarding VLALNNLSQDPPKP [YJR033C 294-307], the normalised SPOT signal, Boehringer light units (BLU); mean over the file's lines of this peptide was found to be 105.
The same measure for VNYVDYYPLPDKP [YGL137W 187-199]: 40.6; for VQVQTTTSILPLKP [YGR188C 415-428]: 69.6.
Take VFYENNSPEKEKP [YOR129C 465-477]: the normalised SPOT signal, Boehringer light units (BLU); mean over the file's lines of this peptide is 118.
The result for VLRLTDIEKTPQRP [YFL001W 315-328] reads 122; that for VLNTRESPDSLKP [YGR109W-B 421-433], 103.
The same measure for VSRFYQIPGTHRP [YBR235W 2-14]: 326.
Consider VVDIEVPMEYPFKP [YDR177W 53-66], for which the normalised SPOT signal, Boehringer light units (BLU); mean over the file's lines of this peptide stood at 40.3.
Take VIRNFRFVGLPKKP [YPR155C 202-215]: the normalised SPOT signal, Boehringer light units (BLU); mean over the file's lines of this peptide was determined as 145.
The result for VITPSQLPNSVRP [YFL036W 250-262] reads 214; that for VRRKPHSPNKKKP [YDR223W 11-23], 98; that for VTDFNYTPSHQKP [YIL106W 99-111], 79.
As to VSSSSTIPVLPKP [YJL201W 369-381], the normalised SPOT signal, Boehringer light units (BLU); mean over the file's lines of this peptide was 77.3.
For VLSTLYQPNGFRP [YHR194W 300-312], the normalised SPOT signal, Boehringer light units (BLU); mean over the file's lines of this peptide stood at 54.5.
Regarding VLDVSHSKYIPLKP [YGL017W 311-324], the normalised SPOT signal, Boehringer light units (BLU); mean over the file's lines of this peptide worked out at 51.1.
The same measure for VQMRMDPNQQPEKP [YDR258C 83-96]: 247; for VPLQIVSPQSNKP [YDL140C 507-519]: 20.8.
As for VVDGNLAHETPVKP [YGR188C 429-442], the normalised SPOT signal, Boehringer light units (BLU); mean over the file's lines of this peptide was found to be 93.
Turning to VILDARLPKNVKP [YDR107C 200-212], the normalised SPOT signal, Boehringer light units (BLU); mean over the file's lines of this peptide worked out at 99.6.
For the molecule VKDYWEHPQAYKP [YMR250W 428-440], the normalised SPOT signal, Boehringer light units (BLU); mean over the file's lines of this peptide came out at 12.6.
VSHGDLNLINPMRP [YOL042W 270-283] came in with a normalised SPOT signal, Boehringer light units (BLU); mean over the file's lines of this peptide of 107.
VPPTQSLPNGKKP [YER035W 35-47] returned a normalised SPOT signal, Boehringer light units (BLU); mean over the file's lines of this peptide of 79.3.
The molecule VSHYHYGVKHPMKP [YGL194C 36-49] yielded a normalised SPOT signal, Boehringer light units (BLU); mean over the file's lines of this peptide of 39.9.
The molecule VIAILNPEVLPWRP [YIL150C 263-276] displayed a normalised SPOT signal, Boehringer light units (BLU); mean over the file's lines of this peptide of 78.9.
VTDLIKFPLMDKP [YNR011C 599-611] showed a normalised SPOT signal, Boehringer light units (BLU); mean over the file's lines of this peptide of 88.1.
For VSSSEIESVEPLKP [YMR219W 1122-1135], the normalised SPOT signal, Boehringer light units (BLU); mean over the file's lines of this peptide is 56.1.
VVYFSSIPPYMKP [YNR054C 115-127] registered a normalised SPOT signal, Boehringer light units (BLU); mean over the file's lines of this peptide of 93.8.
As to VFSKMAKKLLPYKP [YBR270C 205-218], the normalised SPOT signal, Boehringer light units (BLU); mean over the file's lines of this peptide worked out at 896.
The molecule VVVEFSSPNIAKP [YHR091C 181-193] gave a normalised SPOT signal, Boehringer light units (BLU); mean over the file's lines of this peptide of 86.6.
In turn, VVRTSKHWVLPPRP [YKL109W 62-75] had a normalised SPOT signal, Boehringer light units (BLU); mean over the file's lines of this peptide of 2600.
Molecule VMIIFTIPETYKP [YHR048W 242-254] yielded a normalised SPOT signal, Boehringer light units (BLU); mean over the file's lines of this peptide of 96.
The same measure for VNPIGITPLGPKP [YMR251W 349-361]: 62.5; for VSSQPSLPRTLKP [YPL019C 812-824]: 214.
The molecule VNIEDITEPKPDKP [YDR363W 93-106] displayed a normalised SPOT signal, Boehringer light units (BLU); mean over the file's lines of this peptide of 103.
As for VVRIKGINKIPPKP [YGL076C 86-99], the normalised SPOT signal, Boehringer light units (BLU); mean over the file's lines of this peptide stood at 615.
With VYYVSKAKLQPAKP [YAR007C 254-267], the normalised SPOT signal, Boehringer light units (BLU); mean over the file's lines of this peptide came to 135.
The same measure for VSSTGSKSGPPPRP [YNL138W 345-358]: 793.
Regarding VRDAYEKTLPPKRP [YKL032C 424-437], the normalised SPOT signal, Boehringer light units (BLU); mean over the file's lines of this peptide turned out to be 416.
With VNNEIHYYYPPVKP [YDR321W 235-248], the normalised SPOT signal, Boehringer light units (BLU); mean over the file's lines of this peptide came out at 116.
As to VGGNPDIPSLLKP [YHR080C 52-64], the normalised SPOT signal, Boehringer light units (BLU); mean over the file's lines of this peptide is 87.4.
For the molecule VSFDLKTPLRAKP [YMR092C 479-491], the normalised SPOT signal, Boehringer light units (BLU); mean over the file's lines of this peptide worked out at 461.
Regarding VVVMSTSDERPFRP [YGL165C 142-155], the normalised SPOT signal, Boehringer light units (BLU); mean over the file's lines of this peptide was found to be 146.
As to VTKRPATSTPPRKP [YJR043C 299-312], the normalised SPOT signal, Boehringer light units (BLU); mean over the file's lines of this peptide worked out at 812.
VIIEFSSPNIAKP [YDR341C 145-157] had a normalised SPOT signal, Boehringer light units (BLU); mean over the file's lines of this peptide of 38.1.
In turn, VFSGVTNQPSPIRP [YER129W 661-674] showed a normalised SPOT signal, Boehringer light units (BLU); mean over the file's lines of this peptide of 98.3.
Regarding VVSSKGTSTYPVKP [YJR105W 266-279], the normalised SPOT signal, Boehringer light units (BLU); mean over the file's lines of this peptide was 112.
The result for VLVTEKFPEVMKP [YMR208W 259-271] reads 87.4; that for VPKSTHDPSLAKP [YER167W 235-247], 82.5; that for VWYISYGEWGPRRP [YNL052W 72-85], 29.6.
The molecule VSLHLVRKVAPTKP [YHR070W 474-487] came in with a normalised SPOT signal, Boehringer light units (BLU); mean over the file's lines of this peptide of 5240.
As to VGNYAYGAGHPMKP [YNL330C 29-42], the normalised SPOT signal, Boehringer light units (BLU); mean over the file's lines of this peptide was found to be 97.4.
The result for VIAVNDNPVVPRP [YOR324C 73-85] reads 140.
Molecule VLPVKIQPPLLRP [YPR175W 10-22] displayed a normalised SPOT signal, Boehringer light units (BLU); mean over the file's lines of this peptide of 149.
In turn, VIWQATTPVDVKP [YLR381W 153-165] yielded a normalised SPOT signal, Boehringer light units (BLU); mean over the file's lines of this peptide of 57.5.

These data come from PMC314469, “Protein Interaction Networks by Proteome Peptide Scanning” (PLoS Biology, 2004).
